Source: PMC7530888

Target: GST-tagged MtbXthA (M. tuberculosis class II AP-endonuclease/3'-5' exonuclease XthA) (M. tuberculosis) (UniProt P96273)
Assay: SPR

Substance: BRCT domain of MtbLigA, His-tagged (from UniProt P9WNV1 1-691) (domain or fragment)
- Kd: 67.7 nM
